Laboratory results: PMC9063470, “Ultrasensitive fluorescent aptasensor for CRP detection based on the RNase H assisted DNA recycling signal amplification strategy”

Experiments:
BNP = BNP (UniProt P16860 103-134); assay: fluorescent strand-displacement aptasensor (RNase H recycling, GO quenching); 50 ng/mL; negligible signal; 20 mM Tris-HCl, 40 mM KCl, 8 mM MgCl2, 1 mM DTT, pH 7.8; 20 min Ap/P1 + CRP incubation; temperature not stated; details: label: none (5-FAM is on the reporter RNA S3, not on Ap or P1); partial duplex: P1 (23 nt) pairs with Ap nt 48-70; 47 nt 5' and 2 nt 3' single-stranded Ap overhangs
Sequence of BNP (P16860 103-134): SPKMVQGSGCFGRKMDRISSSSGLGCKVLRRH

MB = target: T1, MB (UniProt P02144 2-154); assay: as above; details: label: none (5-FAM is on the reporter RNA S3, not on Ap or P1); partial duplex: P1 (23 nt) pairs with Ap nt 48-70; 47 nt 5' and 2 nt 3' single-stranded Ap overhangs
T1 sequence: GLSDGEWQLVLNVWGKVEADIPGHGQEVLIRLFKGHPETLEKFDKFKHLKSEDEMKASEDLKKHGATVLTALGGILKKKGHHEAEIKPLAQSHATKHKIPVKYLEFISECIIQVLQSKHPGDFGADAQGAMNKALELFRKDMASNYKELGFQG

C-reactive protein (CRP) = target: T2, C-reactive protein (CRP) (UniProt P02741 19-224); assay: fluorescent strand-displacement aptasensor (RNase H recycling, GO quenching); CRP 10 ng/mL; P1 strand released from Ap/P1; 20 mM Tris-HCl, 40 mM KCl, 8 mM MgCl2, 1 mM DTT, pH 7.8; 20 min Ap/P1 + CRP incubation; temperature not stated; details: chain copies: 5; label: none (5-FAM is on the reporter RNA S3, not on Ap or P1); partial duplex: P1 (23 nt) pairs with Ap nt 48-70; 47 nt 5' and 2 nt 3' single-stranded Ap overhangs
T2 sequence: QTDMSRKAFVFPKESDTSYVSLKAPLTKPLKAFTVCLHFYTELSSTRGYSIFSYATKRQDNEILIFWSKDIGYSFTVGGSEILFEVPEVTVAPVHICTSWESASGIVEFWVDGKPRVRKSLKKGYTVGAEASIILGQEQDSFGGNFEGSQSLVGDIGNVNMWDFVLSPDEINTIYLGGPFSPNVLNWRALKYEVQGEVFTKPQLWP

B1: CRP aptamer (Ap) presented as Ap/P1 complex (mixed)
DNA 1: GGCAGGAAGACAAACATATAATTGAGATCGTTTGATGACTTTGTAAGAGTGTGGAATGGTCTGTGGTGCTGT
DNA 2: AGCACCACAGACCATTCCACACT
binding result (BNP): no binding
binding result (MB): no binding
binding result (C-reactive protein (CRP)): binds
